Data taken from patent publication US20210147504A1 (Bayer, published 2021).
Where a chain is given by its changes, count along the chain named.

Experiments:
Experiment in all cases: cell-based or functional assay
rat ANP receptor (NPR-A) = target: T1, rat ANP receptor (NPR-A) (rat, UniProt P18910 29-1057)
T1 sequence (looked up): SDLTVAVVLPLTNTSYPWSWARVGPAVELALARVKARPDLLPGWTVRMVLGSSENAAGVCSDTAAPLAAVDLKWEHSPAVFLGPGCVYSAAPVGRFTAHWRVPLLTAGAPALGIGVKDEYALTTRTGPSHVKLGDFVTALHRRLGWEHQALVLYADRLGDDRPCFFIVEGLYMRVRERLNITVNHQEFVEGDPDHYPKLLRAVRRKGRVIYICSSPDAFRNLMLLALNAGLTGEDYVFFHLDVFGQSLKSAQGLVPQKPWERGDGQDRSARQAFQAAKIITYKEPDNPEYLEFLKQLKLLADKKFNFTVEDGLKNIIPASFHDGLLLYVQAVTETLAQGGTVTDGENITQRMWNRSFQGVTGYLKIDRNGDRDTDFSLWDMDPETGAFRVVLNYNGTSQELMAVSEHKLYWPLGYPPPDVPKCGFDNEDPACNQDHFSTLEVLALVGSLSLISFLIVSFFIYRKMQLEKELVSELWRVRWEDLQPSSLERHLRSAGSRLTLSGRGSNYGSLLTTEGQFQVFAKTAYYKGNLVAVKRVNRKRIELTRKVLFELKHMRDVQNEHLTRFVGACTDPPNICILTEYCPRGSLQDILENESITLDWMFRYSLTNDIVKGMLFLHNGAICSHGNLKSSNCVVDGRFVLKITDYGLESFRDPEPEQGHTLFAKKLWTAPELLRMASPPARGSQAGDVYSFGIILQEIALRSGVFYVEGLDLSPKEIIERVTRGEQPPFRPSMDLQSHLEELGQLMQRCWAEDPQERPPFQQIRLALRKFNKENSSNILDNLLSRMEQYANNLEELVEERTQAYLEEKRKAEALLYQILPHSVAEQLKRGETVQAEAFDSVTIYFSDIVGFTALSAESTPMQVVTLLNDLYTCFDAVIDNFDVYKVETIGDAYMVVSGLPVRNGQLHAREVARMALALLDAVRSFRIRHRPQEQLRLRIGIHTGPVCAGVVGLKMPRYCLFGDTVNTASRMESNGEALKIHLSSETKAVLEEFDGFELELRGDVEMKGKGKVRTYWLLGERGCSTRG

rat CNP receptor (NPR-B) = target: T2, rat CNP receptor (NPR-B) (rat, UniProt P16067 17-1047)
T2 sequence (looked up): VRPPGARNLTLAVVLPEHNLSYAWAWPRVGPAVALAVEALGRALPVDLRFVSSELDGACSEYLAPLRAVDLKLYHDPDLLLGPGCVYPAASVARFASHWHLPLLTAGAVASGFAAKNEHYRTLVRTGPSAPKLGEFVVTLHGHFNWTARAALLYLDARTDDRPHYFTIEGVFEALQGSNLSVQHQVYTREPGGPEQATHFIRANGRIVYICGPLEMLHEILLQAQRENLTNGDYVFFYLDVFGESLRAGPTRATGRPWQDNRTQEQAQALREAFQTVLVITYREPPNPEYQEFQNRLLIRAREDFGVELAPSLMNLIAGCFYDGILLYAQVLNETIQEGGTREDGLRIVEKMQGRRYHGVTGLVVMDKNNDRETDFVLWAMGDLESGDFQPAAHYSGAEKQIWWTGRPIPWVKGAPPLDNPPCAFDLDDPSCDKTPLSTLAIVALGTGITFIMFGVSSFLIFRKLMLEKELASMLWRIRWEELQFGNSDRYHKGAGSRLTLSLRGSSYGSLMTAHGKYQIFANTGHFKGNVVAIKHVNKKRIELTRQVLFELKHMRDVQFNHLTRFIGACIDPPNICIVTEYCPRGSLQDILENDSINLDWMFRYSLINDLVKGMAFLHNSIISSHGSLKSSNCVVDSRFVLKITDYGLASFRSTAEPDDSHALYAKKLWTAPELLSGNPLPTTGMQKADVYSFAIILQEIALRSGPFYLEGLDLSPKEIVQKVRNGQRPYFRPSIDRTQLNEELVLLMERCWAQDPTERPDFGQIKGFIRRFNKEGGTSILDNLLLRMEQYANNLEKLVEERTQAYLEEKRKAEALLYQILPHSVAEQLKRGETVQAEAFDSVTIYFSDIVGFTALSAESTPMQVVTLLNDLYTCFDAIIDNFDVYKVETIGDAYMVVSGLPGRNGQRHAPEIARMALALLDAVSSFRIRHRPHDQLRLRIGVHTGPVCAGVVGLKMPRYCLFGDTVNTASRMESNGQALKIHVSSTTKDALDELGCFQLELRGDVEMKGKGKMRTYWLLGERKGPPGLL

human NPRA (hNPRA) = target: T3, human NPRA (hNPRA) (human, UniProt P16066 33-1061)
T3 sequence (looked up): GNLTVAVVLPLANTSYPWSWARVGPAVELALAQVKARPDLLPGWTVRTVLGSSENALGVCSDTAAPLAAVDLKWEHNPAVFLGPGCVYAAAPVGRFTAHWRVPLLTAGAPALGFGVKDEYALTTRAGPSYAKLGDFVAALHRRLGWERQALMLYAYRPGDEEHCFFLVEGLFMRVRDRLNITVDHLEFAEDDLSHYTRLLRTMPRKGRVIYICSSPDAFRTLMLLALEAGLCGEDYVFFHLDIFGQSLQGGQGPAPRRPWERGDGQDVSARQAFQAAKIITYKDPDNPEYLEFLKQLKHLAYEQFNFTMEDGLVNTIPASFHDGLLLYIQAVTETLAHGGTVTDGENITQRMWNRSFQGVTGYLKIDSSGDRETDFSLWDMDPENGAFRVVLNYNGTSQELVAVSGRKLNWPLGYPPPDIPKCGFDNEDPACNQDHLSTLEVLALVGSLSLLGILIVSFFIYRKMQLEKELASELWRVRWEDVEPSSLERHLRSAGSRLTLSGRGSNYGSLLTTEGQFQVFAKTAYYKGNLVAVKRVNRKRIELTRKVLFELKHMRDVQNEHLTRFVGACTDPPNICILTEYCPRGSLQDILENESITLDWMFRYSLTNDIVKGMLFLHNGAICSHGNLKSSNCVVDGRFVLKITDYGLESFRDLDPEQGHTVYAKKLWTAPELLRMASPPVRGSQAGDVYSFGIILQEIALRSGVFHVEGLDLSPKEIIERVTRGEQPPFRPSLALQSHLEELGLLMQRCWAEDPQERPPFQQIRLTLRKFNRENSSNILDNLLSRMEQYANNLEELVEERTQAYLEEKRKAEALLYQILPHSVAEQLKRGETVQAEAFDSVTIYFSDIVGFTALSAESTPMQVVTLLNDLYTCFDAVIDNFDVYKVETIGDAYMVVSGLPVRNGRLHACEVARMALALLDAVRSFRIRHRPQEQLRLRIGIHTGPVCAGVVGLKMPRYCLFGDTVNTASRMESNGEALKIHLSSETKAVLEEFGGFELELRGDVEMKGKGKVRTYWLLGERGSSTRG

human NPRA = target: T4, human NPRA (human, UniProt P16066 33-1061)
T4 sequence (looked up): T3 sequence (looked up)

B1: TPP-11156 (antibody, human IgG1, lambda)
heavy: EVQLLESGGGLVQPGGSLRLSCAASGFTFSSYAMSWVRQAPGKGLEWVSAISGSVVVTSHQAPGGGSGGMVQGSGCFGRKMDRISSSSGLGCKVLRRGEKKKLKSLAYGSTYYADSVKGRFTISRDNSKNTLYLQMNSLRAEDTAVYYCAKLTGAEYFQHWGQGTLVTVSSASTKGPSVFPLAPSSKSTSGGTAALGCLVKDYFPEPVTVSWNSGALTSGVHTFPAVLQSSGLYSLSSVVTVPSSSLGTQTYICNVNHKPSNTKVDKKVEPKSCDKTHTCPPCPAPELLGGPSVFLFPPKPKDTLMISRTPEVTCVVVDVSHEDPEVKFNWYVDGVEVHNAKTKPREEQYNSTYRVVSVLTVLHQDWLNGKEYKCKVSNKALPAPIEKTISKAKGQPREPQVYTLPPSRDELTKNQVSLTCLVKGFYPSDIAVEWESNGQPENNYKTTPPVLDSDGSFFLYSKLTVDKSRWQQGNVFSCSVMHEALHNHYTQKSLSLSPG
light: QSVLTQPPSVSGAPGQRVTISCTGSSSNIGAGYDVHWYQQLPGTAPKLLIYGNSNRPSGVPDRFSGSKSGTSASLAITGLQAEDEADYYCQSYDSSLSGVVFGGGTKLTVLGQPKAAPSVTLFPPSSEELQANKATLVCLISDFYPGAVTVAWKADSSPVKAGVETTTPSKQSNNKYAASSYLSLTPEQWKSHRSYSCQVTHEGSTVEKTVAPTECS
Rat ANP receptor (NPR-A)
  EC50, fluorescence signal of rat NPR-A cGMP reporter CHO cell line (GCaMP6/CNGA2): 1200 nM
  EC50 on rNPRA reporter cells: > 1000 nM

B2: TPP-9465 (antibody)
heavy: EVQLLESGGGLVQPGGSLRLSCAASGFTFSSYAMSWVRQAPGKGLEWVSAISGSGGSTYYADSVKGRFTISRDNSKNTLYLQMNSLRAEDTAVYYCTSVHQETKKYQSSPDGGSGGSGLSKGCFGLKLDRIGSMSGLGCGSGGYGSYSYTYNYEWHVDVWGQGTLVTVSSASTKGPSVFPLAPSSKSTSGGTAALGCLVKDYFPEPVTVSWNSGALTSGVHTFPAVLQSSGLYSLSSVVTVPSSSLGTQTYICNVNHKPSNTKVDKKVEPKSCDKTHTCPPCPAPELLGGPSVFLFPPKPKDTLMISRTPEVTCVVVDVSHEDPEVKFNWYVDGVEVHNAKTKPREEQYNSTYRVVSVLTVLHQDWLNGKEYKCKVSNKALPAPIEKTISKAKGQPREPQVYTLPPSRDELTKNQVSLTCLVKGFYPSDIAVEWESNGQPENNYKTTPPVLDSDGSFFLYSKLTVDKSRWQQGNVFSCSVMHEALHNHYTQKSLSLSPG
light: B1 light
Rat CNP receptor (NPR-B)
  EC50, luminescence signal of rat NPR-B cGMP reporter cell line: 5.2 nM

B3: TPP-5661 (antibody)
heavy: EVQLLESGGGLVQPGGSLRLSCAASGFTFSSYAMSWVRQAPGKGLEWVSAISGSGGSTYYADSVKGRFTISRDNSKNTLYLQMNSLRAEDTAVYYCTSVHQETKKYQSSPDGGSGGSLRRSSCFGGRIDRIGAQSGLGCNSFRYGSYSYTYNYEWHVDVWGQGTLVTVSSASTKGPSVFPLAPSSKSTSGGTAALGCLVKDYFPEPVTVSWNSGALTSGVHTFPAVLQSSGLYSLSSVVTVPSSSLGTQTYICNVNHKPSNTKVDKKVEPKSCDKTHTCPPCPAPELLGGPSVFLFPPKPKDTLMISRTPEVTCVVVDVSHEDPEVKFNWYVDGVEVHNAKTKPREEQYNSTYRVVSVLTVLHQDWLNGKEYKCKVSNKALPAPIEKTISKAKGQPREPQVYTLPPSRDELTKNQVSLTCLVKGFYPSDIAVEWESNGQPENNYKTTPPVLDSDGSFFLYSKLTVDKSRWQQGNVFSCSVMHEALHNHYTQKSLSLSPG
light: B1 light
Rat ANP receptor (NPR-A)
  EC50, fluorescence signal of rat NPR-A cGMP reporter CHO cell line (GCaMP6/CNGA2): 17 nM
Human NPRA (hNPRA)
  log EC50, cGMP quantification assay, isolated compound sample (ics) on stable hNPRA-CHO k1 cells: -8.8 log EC50
  log EC50, cGMP quantification assay, purified compound sample (pcs) on stable hNPRA-CHO k1 cells: -9.2 log EC50
  log EC50, cGMP quantification assay, purified compound sample (pcs) on transient hNPRA-HEK293 cells: -9 log EC50

B4: TPP-12377 (antibody)
heavy: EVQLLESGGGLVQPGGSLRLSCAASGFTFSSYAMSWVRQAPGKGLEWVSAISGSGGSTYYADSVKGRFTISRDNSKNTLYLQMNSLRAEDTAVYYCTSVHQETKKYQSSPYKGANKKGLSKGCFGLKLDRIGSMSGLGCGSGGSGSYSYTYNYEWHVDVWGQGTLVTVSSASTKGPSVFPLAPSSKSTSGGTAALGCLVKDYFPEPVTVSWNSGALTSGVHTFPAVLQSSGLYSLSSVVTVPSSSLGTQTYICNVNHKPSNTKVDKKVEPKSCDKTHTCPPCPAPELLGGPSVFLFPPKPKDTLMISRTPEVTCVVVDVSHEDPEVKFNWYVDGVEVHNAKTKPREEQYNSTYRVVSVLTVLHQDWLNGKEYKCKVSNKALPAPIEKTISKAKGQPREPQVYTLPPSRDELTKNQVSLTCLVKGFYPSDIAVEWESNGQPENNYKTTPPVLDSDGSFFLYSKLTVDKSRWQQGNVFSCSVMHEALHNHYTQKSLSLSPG
light: B1 light
Rat CNP receptor (NPR-B)
  EC50, luminescence signal of rat NPR-B cGMP reporter cell line: 4.1 nM

B5: TPP-12897 (antibody)
heavy: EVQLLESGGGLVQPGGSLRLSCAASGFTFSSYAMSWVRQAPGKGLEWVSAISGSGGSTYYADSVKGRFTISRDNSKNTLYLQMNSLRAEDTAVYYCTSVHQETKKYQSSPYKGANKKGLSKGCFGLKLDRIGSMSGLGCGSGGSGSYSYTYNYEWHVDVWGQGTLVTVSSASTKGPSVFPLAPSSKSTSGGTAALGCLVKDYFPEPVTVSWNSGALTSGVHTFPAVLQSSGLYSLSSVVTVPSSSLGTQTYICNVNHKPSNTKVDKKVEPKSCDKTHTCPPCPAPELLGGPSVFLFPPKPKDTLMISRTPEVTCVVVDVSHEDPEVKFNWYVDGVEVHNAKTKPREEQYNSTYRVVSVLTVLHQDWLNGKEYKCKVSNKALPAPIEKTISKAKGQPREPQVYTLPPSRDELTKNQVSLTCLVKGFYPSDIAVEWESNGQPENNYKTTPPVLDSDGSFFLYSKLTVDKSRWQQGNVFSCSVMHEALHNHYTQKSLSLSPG
light: B1 light with S98D
Rat CNP receptor (NPR-B)
  EC50, luminescence signal of rat NPR-B cGMP reporter cell line: 10 nM

B6: TPP-10992 (antibody, human IgG4 S228P, lambda)
heavy: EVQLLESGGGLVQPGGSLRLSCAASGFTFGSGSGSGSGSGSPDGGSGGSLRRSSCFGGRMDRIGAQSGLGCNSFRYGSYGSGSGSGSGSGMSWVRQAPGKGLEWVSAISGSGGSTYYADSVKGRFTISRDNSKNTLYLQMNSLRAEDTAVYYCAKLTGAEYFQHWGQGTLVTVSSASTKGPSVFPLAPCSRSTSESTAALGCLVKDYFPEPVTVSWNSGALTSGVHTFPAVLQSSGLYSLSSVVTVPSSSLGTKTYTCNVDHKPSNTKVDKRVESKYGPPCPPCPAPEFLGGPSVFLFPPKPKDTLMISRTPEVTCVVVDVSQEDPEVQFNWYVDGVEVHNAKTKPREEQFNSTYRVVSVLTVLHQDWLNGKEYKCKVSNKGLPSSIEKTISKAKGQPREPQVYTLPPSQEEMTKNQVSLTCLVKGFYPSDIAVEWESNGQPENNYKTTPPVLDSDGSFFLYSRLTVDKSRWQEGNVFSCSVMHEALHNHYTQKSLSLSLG
light: B1 light
Rat ANP receptor (NPR-A)
  EC50, fluorescence signal of rat NPR-A cGMP reporter CHO cell line (GCaMP6/CNGA2): 180 nM

B7: TPP-9902 (antibody)
heavy: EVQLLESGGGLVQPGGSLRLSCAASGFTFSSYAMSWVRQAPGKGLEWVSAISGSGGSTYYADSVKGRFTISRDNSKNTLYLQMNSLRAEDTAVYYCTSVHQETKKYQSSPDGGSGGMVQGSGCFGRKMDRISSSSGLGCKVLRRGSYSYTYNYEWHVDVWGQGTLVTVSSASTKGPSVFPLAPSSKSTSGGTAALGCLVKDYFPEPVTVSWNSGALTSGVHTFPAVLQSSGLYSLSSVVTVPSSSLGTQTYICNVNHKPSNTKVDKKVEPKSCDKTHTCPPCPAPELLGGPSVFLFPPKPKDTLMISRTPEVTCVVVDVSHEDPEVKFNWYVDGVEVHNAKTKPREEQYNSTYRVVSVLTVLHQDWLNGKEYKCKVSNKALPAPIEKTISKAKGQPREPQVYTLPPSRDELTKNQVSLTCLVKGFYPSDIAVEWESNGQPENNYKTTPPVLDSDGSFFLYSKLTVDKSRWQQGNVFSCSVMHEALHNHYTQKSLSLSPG
light: B1 light
Rat ANP receptor (NPR-A)
  EC50, fluorescence signal of rat NPR-A cGMP reporter CHO cell line (GCaMP6/CNGA2): 2300 nM
  EC50 on rNPRA reporter cells: > 1000 nM

B8: TPP-10355 (antibody, human IgG1, lambda)
heavy: not shown
light: QSVLTQPPSVSGAPGQRVTISCTGSSSNIGAGYDVHWYQQLPGTAPKLLIYGNSNRPSGVPDRFSGSKSGTSASLAITGLQAEDEADYYCAAWNPNPNPNPNPNGGSGGSLRRSSCFGGRMDRIGAQSGLGCNSFRYGSNPNPNPNPNPNVFGSGTKVTVLGQPKAAPSVTLFPPSSEELQANKATLVCLISDFYPGAVTVAWKADSSPVKAGVETTTPSKQSNNKYAASSYLSLTPEQWKSHRSYSCQVTHEGSTVEKTVAPTECS
Human NPRA
  activity rcs: 94%
  average rel logEC50: -0.2 log vs TPP-5661
  rel. activity rcs: 0.1 log vs TPP-5661
  rel. logEC50 pcs 2: -0.6 log vs TPP-5661
  rel. logEC50 pcs 3: 0.2 log vs TPP-5661
  rel. logEC50 pcs 4: -0.3 log vs TPP-5661
